Test results: paper PMC9801508 (2022)
Changes are numbered by the printed parent chain. Like-named read-outs stand apart in the source and are kept apart here.

T1: BCL11A ZnF23 zinc finger domain
T1 chain: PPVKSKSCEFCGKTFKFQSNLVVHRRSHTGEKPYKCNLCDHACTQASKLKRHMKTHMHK

B1: BCL11A extended zinc finger domain (exZnF23) (domain or fragment)
chain: PPVKSKSCEFCGKTFKFQSNLVVHRRSHTGEKPYKCNLCDHACTQASKLKRHMKTHMHKSSPMTVKSDDGLSTASSPEPGTSDLVGSASSALKSVVAKFKSENDPNLIPENGD
B2: Nanobody wt2D9 (initial hit) (VHH)
VHH: QVQLVESGGGLVQAGGSLRLSCAASGSIFVNNAMGWYRQAPGKERELVAAISASGGSTYYADSVKGRFTISRDNAKNTVYLQMNSLKPEDTAVYYCAADQDVYPYEYWGQGTQVTVSS
B3: ZF5.3-2D9 (cell-permeant nanobody) (other)
chain: B2 VHH with V102G
B4: Nanobody 2D9 (2D9_V102G) (VHH)
VHH: B2 VHH with V102G
B5: Nanobody 2D9_W108L (VHH)
VHH: B2 VHH with W108L

Tests used:
[1] = target: A97V
[2] = target: L81F
[3] = target: W108R
[4] = target: Q100L
[5] = target: V102D
[6] = target: B1; assay: MST
[7] = target: T1, BCL11A ZnF23 zinc finger domain; assay: MST
[8] = target: B1; assay: MST
[9] = target: B1

Binder: B1
Kd [1]: 75.2 nM
Kd [2]: 1460 nM
Kd [3]: 56.5 nM
Kd [4]: 224 nM
Kd [5]: 331 nM

Binder: B2
Kd [6]: 1260 nM
Kd [7]: 32900 nM

Binder: B3
Kd [8]: 674 nM

Binder: B4
Kd [8]: 320 nM
Kd [9]: 343 nM

Binder: B5
Kd [9]: 23.4 nM
